From patent publication US20080167219

Biological target: purified human factor X (UniProt P00742)
Sequence of UniProt P00742 (P00742 whole entry, looked up): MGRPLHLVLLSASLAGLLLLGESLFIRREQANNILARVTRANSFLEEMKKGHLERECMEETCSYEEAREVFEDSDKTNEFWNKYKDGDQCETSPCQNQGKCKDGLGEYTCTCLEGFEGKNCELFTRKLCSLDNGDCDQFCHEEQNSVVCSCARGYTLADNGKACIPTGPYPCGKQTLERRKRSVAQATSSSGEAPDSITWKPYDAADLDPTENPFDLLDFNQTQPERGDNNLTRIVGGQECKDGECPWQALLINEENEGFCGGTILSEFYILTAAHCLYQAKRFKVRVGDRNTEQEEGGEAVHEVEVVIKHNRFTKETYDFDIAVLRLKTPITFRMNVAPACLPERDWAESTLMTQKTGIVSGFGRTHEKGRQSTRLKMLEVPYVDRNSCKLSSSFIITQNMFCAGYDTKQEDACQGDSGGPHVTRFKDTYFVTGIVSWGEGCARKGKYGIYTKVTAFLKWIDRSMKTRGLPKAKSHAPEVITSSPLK

Substance	KM for factor X, with 0.4 nM FVIIIa	KM for factor X, without FVIIIa	Kcat, with 0.4 nM FVIIIa	Kcat, without FVIIIa	Vmax of factor Xa generation, with 0.4 nM FVIIIa	Vmax of factor Xa generation, without FVIIIa	kcat/KM, with 0.4 nM FVIIIa	kcat/KM, without FVIIIa
recombinant human factor IX IX-1, single alanine replacement at residue 86	0.0554 µM	0.532 µM	5.09 s⁻¹	0.000225 s⁻¹	15.1 nM FXa/min	0.14 nM FXa/min	9.3e+07 M⁻¹ s⁻¹	429 M⁻¹ s⁻¹
recombinant wild type human factor IX (IX-7)	0.054 µM	0.757 µM	14.2 s⁻¹	0.000262 s⁻¹	27.8 nM FXa/min	0.16 nM FXa/min	2.64e+08 M⁻¹ s⁻¹	353 M⁻¹ s⁻¹
